In patent publication US20110118447A1:
Positions count from the first letter of the chain named. Names may count otherwise.

B1: C5A (XPA23) VH S105I (antibody, V domains shown)
VH: EVQLLESGGGLVQPGGSLRLSCAASGFTFSKYFMFWVRQAPGKGLEWVSVISPSGGMTRYADSVKGRFTISRDNSKNTLYLQMNSLRAEDTAVYYCARVGYGGNIDYWGQGTLVTVSS
VL: DIQMTQSPSSVSASVGDRLTIICRASQDINRWLAWYQQTPGNAPKLLIHSATSLQSGVPSRFSGSGSGTDFTLTINSLQPEDFATYYCQQADSFPLTFGGGTKVEIK
B2: C5A (XPA23) VH Y107P (antibody, V domains shown)
VH: B1 VH with I105S, Y107P
VL: B1 VL
B3: C5A (XPA23) VH Y107V (antibody, V domains shown)
VH: B1 VH with I105S, Y107V
VL: B1 VL
B4: C5A (XPA23) VH Y107G (antibody, V domains shown)
VH: B1 VH with I105S, Y107G
VL: B1 VL
B5: C5A (XPA23) VH S105P (antibody, V domains shown)
VH: B1 VH with I105P
VL: B1 VL
B6: C5A (XPA23) VH Y107L (antibody, V domains shown)
VH: B1 VH with I105S, Y107L
VL: B1 VL
B7: C5A (XPA23) VH Y107W (antibody, V domains shown)
VH: B1 VH with I105S, Y107W
VL: B1 VL
B8: C5A (XPA23) VH Y107A (antibody, V domains shown)
VH: B1 VH with I105S, Y107A
VL: B1 VL
B9: C5A (XPA23) VH Y107F (antibody, V domains shown)
VH: B1 VH with I105S, Y107F
VL: B1 VL
B10: C5A (XPA23) VH D106G (antibody, V domains shown)
VH: B1 VH with I105S, D106G
VL: B1 VL
B11: C5A (XPA23) VH S105F (antibody, V domains shown)
VH: B1 VH with I105F
VL: B1 VL
B12: C5A (XPA23) VH Y107I (antibody, V domains shown)
VH: B1 VH with I105S, Y107I
VL: B1 VL
B13: C5A (XPA23) light chain variable region S53T (antibody, V domains shown)
VH: B1 VH with I105S
VL: B1 VL with S53T
B14: C5A (XPA23) light chain variable region S53A (antibody, V domains shown)
VH: B1 VH with I105S
VL: B1 VL with S53A
B15: C5A (XPA23) light chain variable region S93L (antibody, V domains shown)
VH: B1 VH with I105S
VL: B1 VL with S93L
B16: C5A (XPA23) light chain variable region P95A (antibody, V domains shown)
VH: B1 VH with I105S
VL: B1 VL with P95A
B17: C5A (XPA23) light chain variable region F94L (antibody, V domains shown)
VH: B1 VH with I105S
VL: B1 VL with F94L
B18: C5A (XPA23) light chain variable region S53P (antibody, V domains shown)
VH: B1 VH with I105S
VL: B1 VL with S53P
B19: C5A (XPA23) light chain variable region S93A (antibody, V domains shown)
VH: B1 VH with I105S
VL: B1 VL with S93A
B20: C5A (XPA23) light chain variable region A91T (antibody, V domains shown)
VH: B1 VH with I105S
VL: B1 VL with A91T
B21: C5A (XPA23) light chain variable region D92L (antibody, V domains shown)
VH: B1 VH with I105S
VL: B1 VL with D92L
B22: C5A (XPA23) light chain variable region L96A (antibody, V domains shown)
VH: B1 VH with I105S
VL: B1 VL with L96A
B23: C5A (XPA23) light chain variable region S93G (antibody, V domains shown)
VH: B1 VH with I105S
VL: B1 VL with S93G
B24: C5A (XPA23) light chain variable region S53G (antibody, V domains shown)
VH: B1 VH with I105S
VL: B1 VL with S53G
B25: C5A (XPA23) light chain variable region D92I (antibody, V domains shown)
VH: B1 VH with I105S
VL: B1 VL with D92I
B26: C5A (XPA23) light chain variable region F94P (antibody, V domains shown)
VH: B1 VH with I105S
VL: B1 VL with F94P
B27: C5A (XPA23) light chain variable region F94V (antibody, V domains shown)
VH: B1 VH with I105S
VL: B1 VL with F94V
B28: C5A (XPA23) light chain variable region D92G (antibody, V domains shown)
VH: B1 VH with I105S
VL: B1 VL with D92G
B29: C5A (XPA23) light chain variable region S93T (antibody, V domains shown)
VH: B1 VH with I105S
VL: B1 VL with S93T
B30: C5A (XPA23) light chain variable region L96T (antibody, V domains shown)
VH: B1 VH with I105S
VL: B1 VL with L96T
B31: C5A (XPA23) light chain variable region A91V (antibody, V domains shown)
VH: B1 VH with I105S
VL: B1 VL with A91V
B32: C5A (XPA23) light chain variable region L96I (antibody, V domains shown)
VH: B1 VH with I105S
VL: B1 VL with L96I
B33: C5A (XPA23) light chain variable region S53I (antibody, V domains shown)
VH: B1 VH with I105S
VL: B1 VL with S53I
B34: C5A (XPA23) light chain variable region S53V (antibody, V domains shown)
VH: B1 VH with I105S
VL: B1 VL with S53V
B35: C5A (XPA23) light chain variable region A91L (antibody, V domains shown)
VH: B1 VH with I105S
VL: B1 VL with A91L
B36: C5A (XPA23) light chain variable region S93I (antibody, V domains shown)
VH: B1 VH with I105S
VL: B1 VL with S93I
B37: C5A (XPA23) light chain variable region D92A (antibody, V domains shown)
VH: B1 VH with I105S
VL: B1 VL with D92A
B38: C5A (XPA23) light chain variable region S93V (antibody, V domains shown)
VH: B1 VH with I105S
VL: B1 VL with S93V
B39: C5A (XPA23) light chain variable region D92T (antibody, V domains shown)
VH: B1 VH with I105S
VL: B1 VL with D92T
B40: C5A (XPA23) light chain variable region S53L (antibody, V domains shown)
VH: B1 VH with I105S
VL: B1 VL with S53L
B41: C5A (XPA23) light chain variable region F94I (antibody, V domains shown)
VH: B1 VH with I105S
VL: B1 VL with F94I

Target: binding partner of C5A (XPA23)
Experiment: Biacore

Molecule | fold difference in affinity vs original [fold] | fold affinity vs original [fold]
B1 | 0.07 | 
B2 | 0.04 | 
B3 | 0.93 | 
B4 | 0.1 | 
B5 | 1.41 | 
B6 | 0.86 | 
B7 |  | 0.89
B8 | 0.83 | 
B9 |  | 0.9
B10 | 0.03 | 
B11 |  | 1.25
B12 | 0.96 | 

Target: binding partner (antigen) of ING-1
Experiment: Biacore, internal control

Molecule | fold difference in affinity vs original [fold]
ING-1 (original, unmodified variable domain) (antibody) | 1.38

Target: binding partner (antigen) of C5A (XPA23)
Experiment: Biacore, K-off, fold vs original

Molecule | fold difference in affinity vs original [fold]
B1 | 0.07
B2 | 0.04
B3 | 0.93
B4 | 0.1
B5 | 1.41
B6 | 0.86
B7 | 0.89
B8 | 0.83
B9 | 0.9
B10 | 0.03
B11 | 1.25
B12 | 0.96

Target: binding partner of C5A (XPA23)
Experiment: Biacore, mutant vs original C5A (XPA23)

Molecule | fold difference in affinity in comparison to original [fold]
B13 | 0.95
B14 | 1.07
B15 | 1.08
B16 | 3.83
B17 | 0.55
B18 | 4.92
B19 | 1.16
B20 | 0.67
B21 | 0.14
B22 | 0.26
B23 | 0.75
B24 | 1.03
B25 | 0.33
B26 | 0.17
B27 | 0.2
B28 | 0.26
B29 | 1.47
B30 | 0.06
B31 | 0.51
B32 | 0.67
B33 | 1.42
B34 | 1.42
B35 | 0.39
B36 | 1.35
B37 | 0.4
B38 | 3.81
B39 | 0.34
B40 | 0.99
B41 | 0.88
